In patent publication US7727960B2, “C5a receptor antagonists” (Jerini AG, priority 2003, dated 2010) one finds IC50 activity group, enzyme release assay, EC50, agonistic activity, enzyme release assay and IC50, functional assay data, which are given here for 85 substances.

In this experiment the target is T1, human C5aR (CD88) (human, UniProt P21730 1-350).
T1 sequence (looked up): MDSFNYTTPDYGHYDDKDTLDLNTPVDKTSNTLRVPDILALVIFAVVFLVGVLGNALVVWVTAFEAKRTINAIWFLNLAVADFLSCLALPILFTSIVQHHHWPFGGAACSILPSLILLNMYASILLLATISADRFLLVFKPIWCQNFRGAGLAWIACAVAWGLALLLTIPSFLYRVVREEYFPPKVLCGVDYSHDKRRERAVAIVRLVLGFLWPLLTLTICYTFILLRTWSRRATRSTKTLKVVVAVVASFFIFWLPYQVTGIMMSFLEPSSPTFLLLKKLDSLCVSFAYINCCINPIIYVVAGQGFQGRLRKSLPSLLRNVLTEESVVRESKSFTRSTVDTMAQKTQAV
Briefly: cell-based or functional assay.
Turning to “Ac-Phe-Ffa-Pro-hle-Bta-Phe-NH2 (peptide)”, the IC50 activity group, enzyme release assay is below 0.02 µM.
The substance “Ac-Phe-Orn-Ser-cha-Bta-Phe-NH2 (peptide)” came in with an IC50 activity group, enzyme release assay below 0.05 µM.
Take H-Phe-[Orn-Hyp-hle-Pff-Hle] (peptide): the IC50 activity group, enzyme release assay was below 0.2 µM.
As for Ac-Phe-[Orn-Thr-cha-Trp-Nle] (peptide), the IC50 activity group, enzyme release assay is below 0.2 µM.
Same read-out and setting: the result for “Ac-His-Phe-Orn-Aze-cha-Bta-Phe-NH2 (peptide)” reads below 0.2 µM; that for “Ac-Cit-Phe-Orn-Aze-cha-Bta-Phe-NH2 (peptide)”, below 0.05 µM; that for “Ac-Phe-Orn-Pro-hle-Pff-Phe-NH2 (peptide)”, below 0.2 µM.
For the substance “Ac-Phe-Orn-Pro-hle-Egc-Phe-NH2 (peptide)”, the IC50 activity group, enzyme release assay is below 0.2 µM.
Turning to “Ac-Phe-Ech-Pro-cha-Bta-Phe-NH2 (peptide)”, the IC50 activity group, enzyme release assay was below 0.2 µM.
In turn, “Ac-Phe-Orn-Pro-ctb-Pff-Phe-NH2 (peptide)” returned an IC50 activity group, enzyme release assay below 0.05 µM.
“Ac-Phe-Orn-NMA-cha-Bta-Phe-NH2 (peptide)”: the IC50 activity group, enzyme release assay was below 0.2 µM.
“Ac-Ebw-Orn-Pro-cha-Trp-Phe-NH2 (peptide)” returned an EC50, agonistic activity, enzyme release assay above 100 µM and an IC50 activity group, enzyme release assay below 0.2 µM.
In turn, “Ac-Phe-Orn-Pro-hle-Tff-Phe-NH2 (peptide)” showed an IC50 activity group, enzyme release assay below 0.2 µM.
The same measure, in the same setting: for H-Phe-[Orn-Hyp-hle-Trp-Nle] (peptide) the value was below 0.05 µM; for Ac-Phe-[Orn-Hyp-Mmf-Trp-Phe] (peptide), below 0.2 µM.
As for Ac-Phe-[Orn-Pro-cha-Pff-Phe] (peptide), the IC50 activity group, enzyme release assay is below 0.2 µM.
For “Ac-Phe-Orn-Pro-hle-Mcf-2Ni-NH2 (peptide)”, the IC50 activity group, enzyme release assay is below 0.2 µM.
The same measure, in the same setting: the result for “Ac-Phe-Nle-Pro-cha-Bta-Phe-NH2 (peptide)” reads below 0.2 µM.
“Ac-Phe-Orn-Pro-hle-Bta-Cha-NH2 (peptide)” came in with an IC50 activity group, enzyme release assay below 0.2 µM.
Take Ac-Phe-Orn-Tic-cha-Trp-Phe-OH (peptide): the IC50 activity group, enzyme release assay was below 2 µM.
In turn, “Ac-Dab-Phe-Orn-Aze-cha-Bta-Phe-NH2 (peptide)” gave an IC50 activity group, enzyme release assay below 0.2 µM.
Ac-Phe-[Orn-Pro-hle-Bta-Phe] (peptide) yielded an IC50 activity group, enzyme release assay below 0.2 µM.
In the case of “Ac-NMF-Orn-Pro-cha-Bta-Phe-NH2 (peptide)”, the IC50 activity group, enzyme release assay is below 0.2 µM.
Turning to “Ac-Phe-Orn-Pro-cha-Bta-Mcf-NH2 (peptide)”, the IC50 activity group, enzyme release assay was below 0.2 µM.
“Ac-Hyp-Phe-Orn-Aze-cha-Bta-Phe-NH2 (peptide)”: the IC50 activity group, enzyme release assay was below 0.05 µM.
On the same count and under the same terms, for “Ac-Phe-Orn-Hyp-cha-Trp-Phe-NH2 (peptide)” the value was below 2 µM; for “Ac-Phe-Mpa-Pro-cha-Bta-Phe-NH2 (peptide)”, below 0.2 µM.
“Ac-Phe-Orn-Pro-hle-Pff-Mmy-NH2 (peptide)” came in with an IC50 activity group, enzyme release assay below 0.2 µM.
Ac-Phe-[Orn-Hyp-hle-Pff-Phe] (peptide) showed an IC50 activity group, enzyme release assay below 0.2 µM.
On the same count and under the same terms, the result for “Ac-Phe-Orn-Pro-cha-Bta-Pmf-NH2 (peptide)” reads below 0.05 µM; that for “Ac-Phe-Orn-Pro-cha-Bta-Mff-NH2 (peptide)”, below 0.02 µM.
Regarding “Ac-Phe-Har-Aze-cha-Bta-Phe-NH2 (peptide)”, the IC50 activity group, enzyme release assay is below 0.02 µM.
For the substance H-Phe-[Orn-Pro-hle-Pff-Phe] (peptide), the IC50 activity group, enzyme release assay was below 0.05 µM.
For the substance “Ac-Pff-Orn-Pro-hle-Bta-Phe-NH2 (peptide)”, the IC50 activity group, enzyme release assay is below 0.2 µM.
“Ac-Phe-Orn-Pro-hle-Dff-Phe-NH2 (peptide)”: the IC50 activity group, enzyme release assay was below 0.2 µM.
In the case of “Ac-Phe-Orn-Pro-hle-1Ni-Phe-NH2 (peptide)”, the IC50 activity group, enzyme release assay was below 0.05 µM.
Consider “Ac-Phe-Dap-Pro-cha-Bta-Phe-NH2 (peptide)”, for which the IC50 activity group, enzyme release assay was below 0.2 µM.
Consider Ac-Phe-[Orn-Pro-hle-Bta-Nle] (peptide), for which the IC50 activity group, enzyme release assay is below 0.2 µM.
Take H-Phe-[Orn-Hyp-hle-Pff-Chg] (peptide): the IC50 activity group, enzyme release assay is below 0.2 µM.
“Ac-Phe-Orn-Pro-ctb-Mcf-Phe-NH2 (peptide)”: the IC50 activity group, enzyme release assay was below 0.2 µM.
On the same count and under the same terms, for “Ac-Phe-Orn-Pro-hle-6FW-Phe-NH2 (peptide)” the value was below 0.2 µM; for “Ac-Phe-Orn-Tic-cha-Trp-Phe-NH2 (peptide)”, below 0.2 µM; for “Ac-Phe-Orn-Pro-ctb-Bta-Phe-NH2 (peptide)”, below 0.05 µM.
The substance H-Phe-[Orn-Ser-hle-Trp-Nle] (peptide) registered an IC50 activity group, enzyme release assay below 0.05 µM.
H-Phe-[Orn-Hyp-hle-Trp-Hle] (peptide) gave an IC50 activity group, enzyme release assay below 0.2 µM.
In turn, “H2N-CO-Phe-Orn-Pro-cha-Bta-Phe-NH2 (peptide)” returned an IC50 activity group, enzyme release assay below 0.05 µM.
On to “Ac-Phe-Guf-Pro-cha-Bta-Phe-NH2 (peptide)”, for which the IC50 activity group, enzyme release assay was below 0.05 µM.
Same read-out and setting: for Ac-Phe-[Orn-Hyp-hle-Trp-Phe] (peptide) the value was below 0.05 µM.
“Ac-Phe-Orn-Pro-hle-Bta-5Ff-NH2 (peptide)” gave an IC50 activity group, enzyme release assay below 0.2 µM.
As for “Ac-Phe-Orn-Pro-hle-Otf-Phe-NH2 (peptide)”, the IC50 activity group, enzyme release assay was below 0.2 µM.
On the same count and under the same terms, the result for “Ac-Thr-Phe-Orn-Aze-cha-Bta-Phe-NH2 (peptide)” reads below 0.05 µM.
Consider H-Phe-[Orn-Ser-cha-Trp-Nle] (peptide), for which the EC50, agonistic activity, enzyme release assay is above 1.43 µM and the IC50 activity group, enzyme release assay is below 0.05 µM.
“Ac-Phe-Orn-Pro-hle-Mcf-Phe-NH2 (peptide)” came in with an IC50 activity group, enzyme release assay below 0.2 µM.
On the same count and under the same terms, for H-Phe-[Orn-Hyp-hle-Mcf-Leu] (peptide) the value was below 0.2 µM.
The same measure, in the same setting: for “Ac-Phe-Orn-Hyp-hle-Bta-Phe-NH2 (peptide)” the value was below 0.2 µM.
For “Ac-Phe-Ffa-Pro-cha-Bta-Phe-NH2 (peptide)”, the IC50 activity group, enzyme release assay was below 0.05 µM.
In turn, “Ac-Off-Orn-Pro-hle-Bta-Phe-NH2 (peptide)” registered an IC50 activity group, enzyme release assay below 0.05 µM.
On the same count and under the same terms, for Bzl-[Orn-Pro-cha-Bta-Nle] (peptide) the value was below 0.2 µM; for “(-CO-CH2-NH-CO-)-Phe-Orn-Pro-cha-Bta-Phe-NH2 (peptide)”, below 0.2 µM; for “Ac-Phe-Orn-Chy-hle-Pff-Phe-NH2 (peptide)”, below 0.2 µM.
The substance “Ac-Phe-[Orn-NMeAla-cha-Trp-Arg] (peptide)” gave an IC50, functional assay of 0.025 µM and an IC50 activity group, enzyme release assay below 0.05 µM.
“Ac-Phe-Fcp-Aze-cha-Bta-Phe-NH2 (peptide)” gave an IC50 activity group, enzyme release assay below 0.05 µM.
Consider Ac-Phe-[Orn-Aze-cha-Trp-Nle] (peptide), for which the IC50 activity group, enzyme release assay is below 0.2 µM.
Take H-Phe-[Orn-Ser-hle-Pff-Nle] (peptide): the IC50 activity group, enzyme release assay is below 0.05 µM.
“Ac-Phe-Orn-Pro-hle-Pff-2Ni-NH2 (peptide)” registered an IC50 activity group, enzyme release assay below 0.2 µM.
Regarding Ac-Phe-[Orn-Hyp-hle-Mcf-Phe] (peptide), the IC50 activity group, enzyme release assay was below 0.2 µM.
The substance “Ac-Phe-Orn-Pro-hle-Off-Phe-NH2 (peptide)” returned an IC50 activity group, enzyme release assay below 0.2 µM.
Still for that read-out and setting: the result for Ac-Thi-[Orn-Pro-hle-Bta-Phe] (peptide) reads below 0.2 µM; that for “Ac-Gly-Phe-Orn-Aze-cha-Bta-Phe-NH2 (peptide)”, below 0.02 µM; that for “Ac-Phe-Orn-Pro-hle-Eaa-Phe-NH2 (peptide)”, below 0.2 µM.
As for H-Phe-[Orn-Hyp-hle-Pff-Nle] (peptide), the IC50 activity group, enzyme release assay was below 0.2 µM.
Substance H-Phe-[Orn-Hyp-hle-Trp-Leu] (peptide) yielded an IC50 activity group, enzyme release assay below 0.05 µM.
“Ac-Phe-Orn-Hse-cha-Bta-Phe-NH2 (peptide)”: the IC50 activity group, enzyme release assay is below 0.2 µM.
Same read-out and setting: the result for “Ac-Phe-Orn-Pro-hle-Mcf-Cha-NH2 (peptide)” reads below 0.05 µM; that for H-Phe-[Orn-NMS-cha-Trp-Nle] (peptide), below 0.2 µM.
The substance “Ac-Phe-Orn-Pro-cha-Bta-Cha-NH2 (peptide)” yielded an IC50 activity group, enzyme release assay below 0.2 µM.
“Ac-Phe-Orn-Pro-ctb-Eaa-Phe-NH2 (peptide)” showed an IC50 activity group, enzyme release assay below 0.05 µM.
Substance H-Phe-[Orn-Ser-hle-Pff-Phe] (peptide) showed an IC50 activity group, enzyme release assay below 0.2 µM.
In the case of “Ac-Mff-Orn-Pro-hle-Mcf-Mff-NH2 (peptide)”, the IC50 activity group, enzyme release assay was below 0.2 µM.
On the same count and under the same terms, for “Ac-Phe-Orn-Aze-cha-Bta-Phe-NH-Me (peptide)” the value was below 2 µM; for H-Phe-[Orn-Hyp-hle-Pff-Leu] (peptide), below 0.2 µM; for “Ac-Phe-Orn-Pro-hle-Bta-Tyr-NH2 (peptide)”, below 0.2 µM.
As to “Ac-Ala-Phe-Orn-Aze-cha-Bta-Phe-NH2 (peptide)”, the IC50 activity group, enzyme release assay is below 0.05 µM.
“Ac-Off-Orn-Pro-cha-Bta-Phe-NH2 (peptide)” gave an IC50 activity group, enzyme release assay below 0.05 µM.
For “Ac-Gly-Phe-Orn-Aze-chg-Bta-Phe-NH2 (peptide)”, the IC50 activity group, enzyme release assay was below 0.2 µM.
